Laboratory results: paper doi:10.1101/2025.11.17.688911, “Structure and mechanism of microtubule stabilization and motor regulation by MAP9” (bioRxiv, 2025)

Columns and labels:
[1] = target: T1, surface-immobilized biotinylated microtubules (pig, UniProt Q2XVP4 1-451; Q767L7 1-444, biotin (site not stated) | biotin (site not stated)); experiment: TIRF microscopy, fluorescence intensity of GFP-tagged MAP on microtubules; biotinylated MTs held on a streptavidin-coated coverslip; MAP titrated in BRB80 (80 mM PIPES pH 6.8, 1 mM EGTA, 2 mM MgCl2; about 100 mM salt) with 1 mg/mL casein, 0.5% pluronic acid, no motors or ATP; intensity fit to the Langmuir isotherm; settings: both partners purified
[2] = target: T1, surface-immobilized biotinylated …; experiment: cell-based or functional assay

B1: full-length (FL) human MAP9 (GFP::Human MAP9::strepII) (natural protein, UniProt Q49MG5 1-647, looked up)
chain: MSDEVFSTTLAYTKSPKVTKRTTFQDELIRAITARSARQRSSEYSDDFDSDEIVSLGDFSDTSADENSVNKKMNDFHISDDEEKNPSKLLFLKTNKSNGNITKDEPVCAIKNEEEMAPDGCEDIVVKSFSESQNKDEEFEKDKIKMKPKPRILSIKSTSSAENNSLDTDDHFKPSPRPRSMLKKKSHMEEKDGLEDKETALSEELELHSAPSSLPTPNGIQLEAEKKAFSENLDPEDSCLTSLASSSLKQILGDSFSPGSEGNASGKDPNEEITENHNSLKSDENKENSFSADHVTTAVEKSKESQVTADDLEEEKAKAELIMDDDRTVDPLLSKSQSILISTSATASSKKTIEDRNIKNKKSTNNRASSASARLMTSEFLKKSSSKRRTPSTTTSSHYLGTLKVLDQKPSQKQSIEPDRADNIRAAVYQEWLEKKNVYLHEMHRIKRIESENLRIQNEQKKAAKREEALASFEAWKAMKEKEAKKIAAKKRLEEKNKKKTEEENAARKGEALQAFEKWKEKKMEYLKEKNRKEREYERAKKQKEEETVAEKKKDNLTAVEKWNEKKEAFFKQKEKEKINEKRKEELKRAEKKDKDKQAINEYEKWLENKEKQERIERKQKKRHSFLESEALPPWSPPSRTVFAKVF
notes: human MAP9, full length; also called FL MAP9; ASAP; source: E. coli Rosetta (DE3), purified (Strep-Tactin XT; for structural studies also heparin HP and Superdex 200); not shown: GFP, N-terminal, kept
For B1, the Kd [1] was 61 nM and the “depolymerization rate of MTs after removing free tubulin and GTP, with MAP9 kept in the chamber” value [2] was 6 fold.
